{"source": "paper PMC6764942", "about": "“TFF3 interacts with LINGO2 to regulate EGFR activation for protection against colitis and gastrointestinal helminths” (Nature Communications, 2019)", "molecular_target": "T1, LINGO2-GFP on HEK293 transfectants (mouse, UniProt Q3URE9 28-606)", "T1 construct": "LINGO2, mouse, from pCMV3-mLINGO2-GFP; also called GFP-LINGO2; pCMV3-mLINGO2-GFP; source: HEK293, transfected, on cells", "T1 sequence (looked up)": "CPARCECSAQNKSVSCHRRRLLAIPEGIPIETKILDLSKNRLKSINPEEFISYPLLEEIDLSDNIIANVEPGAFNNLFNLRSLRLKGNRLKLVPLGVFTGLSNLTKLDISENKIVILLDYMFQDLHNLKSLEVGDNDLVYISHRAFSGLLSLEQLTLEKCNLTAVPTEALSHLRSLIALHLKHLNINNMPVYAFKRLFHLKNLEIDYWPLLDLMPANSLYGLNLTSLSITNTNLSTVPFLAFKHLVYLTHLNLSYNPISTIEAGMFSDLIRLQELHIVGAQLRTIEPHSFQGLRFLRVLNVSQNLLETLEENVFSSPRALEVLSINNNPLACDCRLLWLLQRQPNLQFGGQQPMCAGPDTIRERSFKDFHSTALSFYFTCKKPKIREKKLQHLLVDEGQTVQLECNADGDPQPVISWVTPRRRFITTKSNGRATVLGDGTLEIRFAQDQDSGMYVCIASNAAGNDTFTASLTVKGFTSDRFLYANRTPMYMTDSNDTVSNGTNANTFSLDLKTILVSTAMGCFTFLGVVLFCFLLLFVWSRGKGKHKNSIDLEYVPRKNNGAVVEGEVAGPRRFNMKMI", "assay": "flow cytometry on cells; HEK293 transfected with GFP-labeled receptors, 24 h later incubated with PBS or 3 ug Alexa Fluor 647 labeled soluble ligand for 16 h at 4 C; double positive (GFP and AF-647) cells counted", "conditions": "one partner purified", "note": "Where no end group is shown, it is not given here."}
{"binder": "TFF3-647 (murine recombinant TFF3 labeled with Alexa Fluor 647) (ligand, mouse, UniProt Q62395 23-81, looked up, ends and bridges not checked; also: Alexa Fluor 647 label, site not given here, Trefoil factor 3, mouse, recombinant (Peprotech); A commercial recombinant TFF3 is probably the mature protein (surmise); source: bought: Peprotech) ADYVGLSPSQCMVPANVRVDCGYPSVTSEQCNNRGCCFDSSIPNVPWCFKPLQETECTF", "values": [{"measurement": "fold increase in double-positive cells compared to PBS or IL-2-647", "value": 12, "unit": "fold"}]}
